These results are taken from patent publication US20250136718A1 (MABWELL THERAPEUTICS, published 2025).

One test concerns the target T1, human ecto-TMPRSS6-FLAG (UniProt Q8IU80 77-811).
T1 chain: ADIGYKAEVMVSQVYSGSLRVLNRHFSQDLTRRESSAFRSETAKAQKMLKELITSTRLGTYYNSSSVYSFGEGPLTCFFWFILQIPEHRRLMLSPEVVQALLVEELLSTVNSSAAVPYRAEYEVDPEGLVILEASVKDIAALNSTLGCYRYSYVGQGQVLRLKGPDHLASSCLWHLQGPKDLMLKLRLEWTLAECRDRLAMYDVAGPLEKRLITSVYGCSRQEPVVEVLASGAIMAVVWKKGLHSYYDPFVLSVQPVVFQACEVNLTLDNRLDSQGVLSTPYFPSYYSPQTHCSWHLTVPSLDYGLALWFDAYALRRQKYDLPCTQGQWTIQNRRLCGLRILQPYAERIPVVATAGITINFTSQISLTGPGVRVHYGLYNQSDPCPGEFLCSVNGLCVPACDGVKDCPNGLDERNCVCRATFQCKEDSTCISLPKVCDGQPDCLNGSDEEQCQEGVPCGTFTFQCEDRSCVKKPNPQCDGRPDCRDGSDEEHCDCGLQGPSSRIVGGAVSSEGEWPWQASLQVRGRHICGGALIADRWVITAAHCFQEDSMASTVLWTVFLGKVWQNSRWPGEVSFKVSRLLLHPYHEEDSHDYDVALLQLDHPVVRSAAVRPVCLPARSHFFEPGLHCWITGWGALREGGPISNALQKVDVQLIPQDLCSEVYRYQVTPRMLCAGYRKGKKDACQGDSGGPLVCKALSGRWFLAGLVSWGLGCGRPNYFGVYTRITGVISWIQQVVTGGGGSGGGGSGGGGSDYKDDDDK
As to the kind of experiment: BLI (Octet). On the technique in general: Biolayer interferometry detects binding as a change in optical thickness at a sensor tip.

Test [1] deals with T2, matriptase (ST14) over-expressed in HEK293T cells (human, UniProt Q9Y5Y6 1-855).
T2 construct: also called matriptase-1
T2 sequence: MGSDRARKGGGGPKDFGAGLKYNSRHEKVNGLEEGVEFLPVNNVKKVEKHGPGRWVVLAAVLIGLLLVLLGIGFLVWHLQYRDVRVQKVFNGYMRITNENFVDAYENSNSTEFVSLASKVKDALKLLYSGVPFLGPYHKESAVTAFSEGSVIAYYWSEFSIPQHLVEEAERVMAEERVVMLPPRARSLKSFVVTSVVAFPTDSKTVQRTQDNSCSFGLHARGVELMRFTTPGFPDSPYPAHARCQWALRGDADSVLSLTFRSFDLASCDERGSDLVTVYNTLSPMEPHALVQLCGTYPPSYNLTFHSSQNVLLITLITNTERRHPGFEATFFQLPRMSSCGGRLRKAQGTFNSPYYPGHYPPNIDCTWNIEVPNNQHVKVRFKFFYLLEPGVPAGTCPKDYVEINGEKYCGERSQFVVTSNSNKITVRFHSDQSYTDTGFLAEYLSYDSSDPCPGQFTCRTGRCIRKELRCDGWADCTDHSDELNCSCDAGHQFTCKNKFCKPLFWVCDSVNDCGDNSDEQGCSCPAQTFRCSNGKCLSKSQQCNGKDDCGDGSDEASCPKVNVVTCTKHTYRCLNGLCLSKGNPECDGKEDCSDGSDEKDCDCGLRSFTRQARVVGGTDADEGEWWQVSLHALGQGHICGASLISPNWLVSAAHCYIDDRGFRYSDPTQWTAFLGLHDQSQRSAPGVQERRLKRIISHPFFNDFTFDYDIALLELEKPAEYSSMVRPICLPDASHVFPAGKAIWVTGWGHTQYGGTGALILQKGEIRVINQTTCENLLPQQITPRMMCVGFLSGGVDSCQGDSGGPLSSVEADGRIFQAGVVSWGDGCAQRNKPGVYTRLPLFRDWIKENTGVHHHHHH
As to the kind of experiment: FACS on permeabilized HEK293T cells over-expressing matriptase (ST14). The source says:
To determine if anti-TMPRSS6 antibodies bind to homologous matriptases, HEK293T cells over-expressing matriptase (ST14) (SEQ ID NO: 100) (FIGS. 5B, 5E, 5H, 5K, 5N, 5Q), and HEK293T cells over-expressing matriptase-3 (TMPRSS7) (SEQ ID NO: 101) (FIGS. 5C, 5F, 5I, 5L, 5O, 5R) were collected (generated in house). HEK293T cells stably expressing human TMPRSS6 (matriptase-2) (SEQ ID NO: 97) (generated by LakePharma Inc as described above, FIGS. 5A, 5D, 5G, 5J, 5M, 5P) were used as a positive control and HEK293T cells (FIGS. 5A-5R) were used as a negative control (as described above). Cells were blocked and permeabilized with dPBS+3% BSA+0.1% Tween-20 before incubation with various anti-TMPRSS6 antibodies diluted in dPBS+3% BSA+0.1% Tween-20. Cells were incubated with anti-TMPRSS6 antibodies and their humanized variants at a concentration of roughly 1 μg/ml for 1 hr. After incubation, cells were washed with dPBS and incubated with goat anti-mouse IgG conjugated with AlexaFluor-488 (Invitrogen, FIGS. 5A-5I) or goat anti-human IgG conjugated with Allophycocyanin (APC) (Jackson Immuno Research, FIGS. 5J-5R) as a 2° antibody. At last, cells were washed with dPBS and re-suspended with dPBS+1 mM EDTA, and then subjected to FACS analysis using a NOVOCYTE® Flow Cytometer. Bound antibody was determined by excitation at 488 nm and measurement of emission (FITC-A) at 530 nm (FIGS. 5A-5I) or by excitation at 640 nm and measurement of emission (APC-A) at 675 nm (FIGS. 5J-5R). Results for these assays are shown in histogram plots in FIGS. 5A-5R.

B1: MWTx-001 anti-TMPRSS6 monoclonal antibody (antibody, mouse IgG2a, kappa, V domains shown)
VH: QVQLQQPGAELAKPGASVKMSCKASGYTFTSYWITWVKQRPGQDLEWIGNIYPGSGSTYYNEKFKSKATLTVDTSSRTAYMQLSSLTSADSAVYYCAPYDSDYAMDYWGQGTSVTVSS
VL: DIKMTQSPSSMYASLGERVTITCKASQDINNYLSWFQQKPGKSPKTLIYRANRLVDGVPSRVSGSGSGQDYSLTISSLEYEDVGIYFCLQYDEFPLTFGAGTKLELKR
notes: Mouse monoclonal antibody from hybridoma (ATCC PTA-126759)
Turning to B1, the equilibrium dissociation constant (Kd) – broadly, the constant that tells how readily two partners part at equilibrium – with human ecto-TMPRSS6-FLAG amounted to 0.66 nM. Moreover, the binding result in test [1] is listed as “no binding (tested: roughly 1 µg/ml)”.

B2: MWTx-002 anti-TMPRSS6 monoclonal antibody (antibody, mouse IgG2b, kappa, V domains shown)
VH: EVQLQQSGAELVKPGASVKLSCTASGFNIKDYYIHWVKERTEQGLEWFGRIDPEDGESEYAPKFQGKATLTADTSSNTAYLQLSSLTSEDTAVYYCTRGDSMMVTYFDYWGQGTTLTVSS
VL: DIVMTQSHKFMSTSVGDRVSITCKASQDVSTAVAWYQQKPGQSPKLLIYWAFTRHTGVPDRFTSTGSGTDYALTISSVQAEDLALYYCQQHYRSPWTFGGGTKLEIKR
notes: Mouse monoclonal antibody from hybridoma (ATCC PTA-126760)
On to B2, for which, in the test with human ecto-TMPRSS6-FLAG, the equilibrium dissociation constant (Kd) was determined as 0.82 nM. Also, the binding result in test [1] is “no binding (tested: roughly 1 µg/ml)”.

B3: humanized anti-TMPRSS6 antibody variant hzMWTx-003 Var (antibody, human IgG1, kappa, L234A L235A, V domains shown)
VH: QVQLVQSGAEVKKPGASVKVSCKASGFNIEDYYMHWVRQAPGQRLEWMGRIDPEDAETTYSPKFQGRVTIIPDTSANTAYMELSSLRSEDTAVYYCARSIYLDPMDYWGQGTLVTVSS
VL: DIQMTQSPKSLSASVGDRVTITCRASQDVTTALAWYQQKPGQSPKLLIYWATTRHSGVPSRFSGSGSGTDFTLTISSLQPEDFATYYCQQHYSTPYTFGQGTKLEIKR
notes: Human IgG1 / kappa
In the case of B3, binding with human ecto-TMPRSS6-FLAG was characterised by a dissociation constant (Kd) of 13.7 nM. Also, the binding result in test [1] was “no binding (tested: roughly 1 µg/ml)”.

B4: MWTx-003 anti-TMPRSS6 monoclonal antibody (antibody, mouse IgG2b, kappa, V domains shown)
VH: EVQLQQSGAELVKPGASVKLSCTASGFNIEDYYIHWVKERTEQGLEWIGRIDPEDGETTYAPQFQGKATIIPDTSSNTAYMQLSSLTSEDAAVYYCARSIYLDPMDYWGQGTSVTVSS
VL: DIVMTQSHKFMSTSVGDRVSITCKASQDVTTAVAWYQQKPGQSPKILIYWATTRHTGVPDRFTGSISGTTYILTISSVQAEDLALYYCQQHYSTPYTFGGGTKLEIKR
notes: Mouse monoclonal antibody from hybridoma (ATCC PTA-126761); The recombinant version r4K12B has the same HC and LC; also called r4K12B; recombinant MWTx-003
Consider B4, for which the Kd with human ecto-TMPRSS6-FLAG amounted to 6.4 nM. Further, the binding result in test [1] is “no binding (tested: roughly 1 µg/ml)”.

B5: humanized anti-TMPRSS6 antibody variant hzMWTx-001 Var (antibody, human IgG1, kappa, N297A, V domains shown)
VH: EVQLVQSGAEVKKPGASVKVSCKASGYTFTSYWITWVRQAPGQRLEWIGNIYPGSGSTYYNEKFKSKATITRDTSSRTAYMELSSLRSEDTAVYYCAPYDADYAMDYWGQGTLVTVSS
VL: DIQMTQSPSSLSASVGDRVTITCKASQDISNYLSWFQQKPGKAPKLLIYRANRLVEGVPSRFSGSGSGTDFTLTISSLQPEDFATYFCLQYDEFPLTFGGGTKVEIKR
notes: Human IgG1 / kappa
For the molecule B5, binding in the test with human ecto-TMPRSS6-FLAG was characterised by a dissociation constant (Kd) of 3.36 nM. Also, in test [1], the binding result is given as “no binding (tested: roughly 1 µg/ml)”.

B6: humanized anti-TMPRSS6 antibody variant hzMWTx-002 Var (antibody, human IgG1, kappa, N297A, V domains shown)
VH: EVQLVQSGAEVKKPGASVKVSCKASGFNIKDYYIHWVRQATGQGLEWMGRIDPEDAESEYAPKFQGRVTITADTSTDTAYMELSSLRSEDTAVYYCTRGDSMMVTYFDYWGQGTLVTVSS
VL: DIQMTQSPSSLSASVGDRVTITCKASQDVSTAVAWYQQKPGKAPKLLIYWAFTRHTGVPSRFSGSGSGTDYALTISSLQPEDFATYYCQQHYRSPWTFGGGTKVEIKR
notes: Human IgG1 / kappa
B6 yielded an equilibrium dissociation constant (Kd) with human ecto-TMPRSS6-FLAG of 18.4 nM. The binding result in test [1] is “no binding (tested: roughly 1 µg/ml)”.
